The target in data set [1] is T1, purified oat phytochrome A, autophosphorylated (UniProt P06593).
T1 sequence: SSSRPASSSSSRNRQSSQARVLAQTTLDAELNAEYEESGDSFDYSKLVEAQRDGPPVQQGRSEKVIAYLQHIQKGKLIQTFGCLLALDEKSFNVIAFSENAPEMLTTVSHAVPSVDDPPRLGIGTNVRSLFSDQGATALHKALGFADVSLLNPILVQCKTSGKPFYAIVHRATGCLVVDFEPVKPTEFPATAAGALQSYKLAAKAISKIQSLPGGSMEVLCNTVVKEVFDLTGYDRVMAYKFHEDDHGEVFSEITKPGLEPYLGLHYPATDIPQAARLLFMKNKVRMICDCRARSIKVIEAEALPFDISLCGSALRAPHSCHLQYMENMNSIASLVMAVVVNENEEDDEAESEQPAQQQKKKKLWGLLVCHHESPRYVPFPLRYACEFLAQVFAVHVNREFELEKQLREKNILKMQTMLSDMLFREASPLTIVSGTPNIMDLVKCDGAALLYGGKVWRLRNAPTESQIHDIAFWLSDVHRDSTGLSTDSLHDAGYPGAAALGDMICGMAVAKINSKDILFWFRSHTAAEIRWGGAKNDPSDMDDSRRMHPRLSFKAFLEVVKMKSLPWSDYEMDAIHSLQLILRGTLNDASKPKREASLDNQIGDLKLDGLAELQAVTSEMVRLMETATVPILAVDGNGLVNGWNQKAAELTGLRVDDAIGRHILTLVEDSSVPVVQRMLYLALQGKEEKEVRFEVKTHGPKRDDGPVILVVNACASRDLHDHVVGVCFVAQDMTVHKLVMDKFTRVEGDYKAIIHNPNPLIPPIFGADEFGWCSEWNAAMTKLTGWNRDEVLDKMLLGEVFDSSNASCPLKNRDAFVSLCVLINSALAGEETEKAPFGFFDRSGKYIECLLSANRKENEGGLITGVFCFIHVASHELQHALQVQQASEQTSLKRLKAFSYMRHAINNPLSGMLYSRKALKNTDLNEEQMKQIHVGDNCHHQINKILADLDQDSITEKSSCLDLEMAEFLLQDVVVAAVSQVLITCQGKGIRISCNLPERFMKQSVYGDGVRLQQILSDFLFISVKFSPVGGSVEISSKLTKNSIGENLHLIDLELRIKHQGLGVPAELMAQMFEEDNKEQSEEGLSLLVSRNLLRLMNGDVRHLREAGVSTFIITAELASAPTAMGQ

The target in data set [2] is T2, purified oat phytochrome A, autophosphorylated, P06593.
T2 chain: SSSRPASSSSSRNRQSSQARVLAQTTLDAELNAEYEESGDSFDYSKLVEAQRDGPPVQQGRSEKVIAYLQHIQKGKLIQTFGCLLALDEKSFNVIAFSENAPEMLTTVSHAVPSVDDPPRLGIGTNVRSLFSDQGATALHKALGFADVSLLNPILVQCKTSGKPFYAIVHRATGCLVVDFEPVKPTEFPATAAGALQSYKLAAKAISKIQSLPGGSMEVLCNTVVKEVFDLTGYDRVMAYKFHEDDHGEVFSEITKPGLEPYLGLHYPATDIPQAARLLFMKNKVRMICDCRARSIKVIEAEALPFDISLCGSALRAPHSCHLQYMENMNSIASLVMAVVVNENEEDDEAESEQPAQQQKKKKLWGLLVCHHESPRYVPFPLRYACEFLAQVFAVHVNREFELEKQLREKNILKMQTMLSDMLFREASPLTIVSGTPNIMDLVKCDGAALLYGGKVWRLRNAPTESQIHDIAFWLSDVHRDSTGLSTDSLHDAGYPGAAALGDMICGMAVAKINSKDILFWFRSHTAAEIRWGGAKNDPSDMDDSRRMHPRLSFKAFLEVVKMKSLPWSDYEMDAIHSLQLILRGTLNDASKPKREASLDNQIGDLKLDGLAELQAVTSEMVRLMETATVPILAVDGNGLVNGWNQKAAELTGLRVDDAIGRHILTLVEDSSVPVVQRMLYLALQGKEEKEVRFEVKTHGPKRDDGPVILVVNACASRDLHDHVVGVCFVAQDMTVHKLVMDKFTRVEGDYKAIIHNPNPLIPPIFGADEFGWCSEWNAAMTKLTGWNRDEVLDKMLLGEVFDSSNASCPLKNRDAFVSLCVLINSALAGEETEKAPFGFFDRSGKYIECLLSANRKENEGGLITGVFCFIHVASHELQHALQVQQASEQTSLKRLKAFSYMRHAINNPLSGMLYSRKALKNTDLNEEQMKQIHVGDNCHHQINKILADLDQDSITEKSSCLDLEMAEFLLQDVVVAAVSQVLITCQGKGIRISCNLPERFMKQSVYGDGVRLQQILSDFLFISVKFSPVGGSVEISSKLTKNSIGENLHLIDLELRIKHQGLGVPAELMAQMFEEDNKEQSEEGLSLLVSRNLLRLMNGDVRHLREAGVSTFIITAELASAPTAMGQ

Data set [3] concerns the target T3, Arabidopsis thaliana phytochrome A (PHYA), full-length, yeast two-hybrid fusion.
T3 chain: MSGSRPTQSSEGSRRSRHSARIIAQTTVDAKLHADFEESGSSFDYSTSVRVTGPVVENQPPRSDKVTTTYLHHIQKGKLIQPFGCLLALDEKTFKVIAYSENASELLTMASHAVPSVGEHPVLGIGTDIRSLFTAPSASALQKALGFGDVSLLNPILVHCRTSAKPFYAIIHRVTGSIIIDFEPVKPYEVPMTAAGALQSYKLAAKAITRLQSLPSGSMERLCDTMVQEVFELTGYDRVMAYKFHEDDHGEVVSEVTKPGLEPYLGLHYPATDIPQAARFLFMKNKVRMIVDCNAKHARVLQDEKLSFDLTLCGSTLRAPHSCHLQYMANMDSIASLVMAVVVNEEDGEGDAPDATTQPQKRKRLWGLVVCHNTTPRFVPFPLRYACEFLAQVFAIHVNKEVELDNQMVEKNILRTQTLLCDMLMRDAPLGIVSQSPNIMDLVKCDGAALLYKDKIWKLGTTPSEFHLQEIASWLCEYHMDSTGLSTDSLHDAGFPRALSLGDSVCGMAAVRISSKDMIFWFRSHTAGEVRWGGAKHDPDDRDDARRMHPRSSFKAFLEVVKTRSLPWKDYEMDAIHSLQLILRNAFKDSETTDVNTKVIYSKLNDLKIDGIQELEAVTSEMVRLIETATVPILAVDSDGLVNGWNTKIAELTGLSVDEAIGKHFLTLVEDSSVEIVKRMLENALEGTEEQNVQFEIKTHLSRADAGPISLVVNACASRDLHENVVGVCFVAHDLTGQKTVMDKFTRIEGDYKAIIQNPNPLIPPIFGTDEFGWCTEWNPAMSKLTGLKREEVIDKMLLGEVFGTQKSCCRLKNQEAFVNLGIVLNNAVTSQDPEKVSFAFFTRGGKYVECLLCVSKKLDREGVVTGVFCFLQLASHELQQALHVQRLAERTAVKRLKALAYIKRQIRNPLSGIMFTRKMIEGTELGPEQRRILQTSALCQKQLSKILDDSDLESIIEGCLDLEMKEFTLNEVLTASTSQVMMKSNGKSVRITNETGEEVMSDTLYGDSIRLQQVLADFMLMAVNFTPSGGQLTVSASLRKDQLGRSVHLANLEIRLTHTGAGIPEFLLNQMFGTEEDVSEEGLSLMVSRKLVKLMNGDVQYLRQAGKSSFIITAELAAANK

Data set [4] concerns the target Arabidopsis thaliana phytochrome B (PHYB), full-length, yeast two-hybrid bait in pGilda, P14713.

Arabidopsis thaliana phytochrome B (PHYB), full-length, yeast two-hybrid bait in pGilda, P14713, sequence (P14713 whole entry): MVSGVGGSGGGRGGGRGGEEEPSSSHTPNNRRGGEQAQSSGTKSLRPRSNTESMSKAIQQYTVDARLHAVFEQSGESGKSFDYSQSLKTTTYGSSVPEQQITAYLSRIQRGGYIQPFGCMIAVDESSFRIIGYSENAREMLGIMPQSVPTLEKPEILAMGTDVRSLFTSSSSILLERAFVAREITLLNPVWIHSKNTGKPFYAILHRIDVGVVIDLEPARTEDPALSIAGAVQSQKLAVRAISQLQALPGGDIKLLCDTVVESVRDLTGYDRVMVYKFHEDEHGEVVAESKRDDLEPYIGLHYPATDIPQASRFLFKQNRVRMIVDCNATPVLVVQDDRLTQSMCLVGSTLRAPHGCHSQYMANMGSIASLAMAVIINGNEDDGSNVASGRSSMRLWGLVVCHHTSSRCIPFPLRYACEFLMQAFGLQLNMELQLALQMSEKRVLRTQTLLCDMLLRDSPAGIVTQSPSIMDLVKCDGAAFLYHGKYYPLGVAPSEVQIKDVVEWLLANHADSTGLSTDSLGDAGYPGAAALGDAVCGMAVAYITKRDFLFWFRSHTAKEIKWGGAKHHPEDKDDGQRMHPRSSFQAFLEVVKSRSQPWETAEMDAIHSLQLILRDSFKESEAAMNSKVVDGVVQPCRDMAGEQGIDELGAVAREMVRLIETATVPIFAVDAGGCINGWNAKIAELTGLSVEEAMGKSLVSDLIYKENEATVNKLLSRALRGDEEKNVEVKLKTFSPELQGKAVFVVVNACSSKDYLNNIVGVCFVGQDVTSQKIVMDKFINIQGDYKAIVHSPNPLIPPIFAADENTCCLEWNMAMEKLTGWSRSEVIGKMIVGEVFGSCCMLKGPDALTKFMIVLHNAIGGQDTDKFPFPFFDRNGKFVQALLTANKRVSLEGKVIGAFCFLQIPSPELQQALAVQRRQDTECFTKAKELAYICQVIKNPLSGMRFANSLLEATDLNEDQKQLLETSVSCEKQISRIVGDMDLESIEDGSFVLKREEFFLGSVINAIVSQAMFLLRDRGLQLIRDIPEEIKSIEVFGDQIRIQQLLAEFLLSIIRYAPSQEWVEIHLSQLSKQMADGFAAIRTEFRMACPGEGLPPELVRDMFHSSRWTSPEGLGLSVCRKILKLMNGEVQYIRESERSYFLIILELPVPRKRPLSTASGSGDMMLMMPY

In the case of “GST-PP2Ac (fusion protein of GST and the PP2A catalytic domain of PAPP5, with a deletion of amino acids 1-138 of SEQ ID NO: 4)”, the “dephosphorylation of autophosphorylated oat Pfr phytochrome A (32P autoradiography)” value in data set [1] is “the level of dephosphorylation was very low”.

B1: GST-PAPP5 fusion protein (glutathione-S-transferase fused to full-length PAPP5) (protein)
chain: METKNENSDVSRAEEFKSQANEAFKGHKYSSAIDLYTKAIELNSNNAVYWANRAFAHTKLEEYGSAIQDASKAIEVDSRYSKGYYRRGAAYLAMGKFKDALKDFQQVKRLSPNDPDATRKLKECEKAVMKLKFEEAISVPVSERRSVAESIDFHTIEVEPQYSGARIEGEEVTLDFVKTMMEDFKNQKTLHKRYAYQIVLQTRQILLALPSLVDISVPHGKHITVCGDVHGQFYDLLNIFELNGLPSEENPYLFNGDFVDRGSFSVEIILTLFAFKCMCPSSIYLARGNHESKSMNKIYGFEGEVRSKLSEKFVDLFAEVFCYLPLAHVINGKVFVVHGGLFSVDGVKLSDIRAIDRFCEPPEEGLMCELLWSDPQPLPGRGPSKRGVGLSFGGDVTKRFLQDNNLDLLVRSHEVKDEGYEVEHDGKLITVFSAPNYCDQMGNKGAFIRFEAPDMKPNIVTFSAVPHPDVKPMAYANNFLRMFN
In the case of B1, in data set [2], the “dephosphorylation of autophosphorylated oat Pfr phytochrome A (32P autoradiography)” value was “only GST-PAPP5 dephosphorylated the autophosphorylated oat Pfr phytochrome A by about 80%” and the “dephosphorylation of autophosphorylated oat phytochrome A according to its light absorption form” value is on record as “the dephosphorylation by PAPP5 was higher in Pfr phytochrome than that in Pf phytochrome”.

B2: B42-PP2Ac (TPR domain-deleted PP2A catalytic domain of PAPP5, yeast two-hybrid prey) (protein)
chain: VPVSERRSVAESIDFHTIEVEPQYSGARIEGEEVTLDFVKTMMEDFKNQKTLHKRYAYQIVLQTRQILLALPSLVDISVPHGKHITVCGDVHGQFYDLLNIFELNGLPSEENPYLFNGDFVDRGSFSVEIILTLFAFKCMCPSSIYLARGNHESKSMNKIYGFEGEVRSKLSEKFVDLFAEVFCYLPLAHVINGKVFVVHGGLFSVDGVKLSDIRAIDRFCEPPEEGLMCELLWSDPQPLPGRGPSKRGVGLSFGGDVTKRFLQDNNLDLLVRSHEVKDEGYEVEHDGKLITVFSAPNYCDQMGNKGAFIRFEAPDMKPNIVTFSAVPHPDVKPMAYANNFLRMFN
With B2, the “beta-galactosidase activity in Miller units (quantitative yeast two-hybrid)” value in data set [3] and in data set [4] was “showed a remarkable reduction in the activity of interaction with phytochromes” each time.

The values above are taken from patent US20080235826.
